This note sets out measurements from article PMC11402598.

Broadly, the stoichiometry N is a count of units in the complex or per binding partner.

Values joined by “and” are separate entries in the source; they are usually repeats but may differ in a detail not shown here. Equal values may be shown once.

Test [1] addresses O432-17(–) nanoparticle assembled with Fc (human). Nature of the test: SEC; in vitro packaging: 1x tetramer, 1x Fc, 1.1x negatively charged trimeric plug, 1x pos36GFP, dialysed 16 h at 25 °C into 25 mM Tris pH 8.0, 200 mM NaCl; Superose 6 10/300 GL; absorbance at 280 and 488 nm. (Size exclusion chromatography separates by hydrodynamic size, large species first.)
Test [2] addresses Fc of human IgG1 (human). Nature of the test: cryo-EM structure; pre-SEC O432-17-Fc sample, 0.5 mg/ml in 25 mM Tris pH 8.0, 150 mM NaCl; octahedral symmetry applied; design model refined into the map.

Turning to positively charged GFP (pos36GFP), the stoichiometry N (pos36GFP per nanoparticle) in test [1] is 9 and 10.

Fc of human IgG1 (domain or fragment): the stoichiometry N in test [2] is 2.
